Results reported in patent US20140037661A1, “Wheat Antigens and Peptides for Diagnosis of Wheat Induced Hypersensitivity” (PHADIA AB, priority 2011, published 2014).

B1: GG2: recombinant gamma gliadin 2 with 6×Histidine at the C terminal end, expressed in E. coli (protein)
chain: MNIQVDPSSQVQWPQQQPVPQPHQPFSQQPQQTFPQPQQTFPHQPQQQFPQPQQPQQQFLQPQQPFPQQPQQPYPQQPQQPFPQTQQPQQLFPQSQQPQQQFSQPQQQFPQPQQPQQSFPQQQPPFIQPSLQQQVNPCKNFLLQQCKPVSLVSSLWSMIWPQSDCQVMRQQSCQQLAQIPQQLQCAAIHTVIHSIIMQQEQQQGMHILLPLYQQQQVGQGTLVQGQGIIQPQQPAQLEAIRSLVLQTLPTMCNVYVPPECSIIKAPFSSVVAGIGGQYRHHHHHH
B2: Bet v 1: recombinant protein used for control pre-incubation of sera in the IgE inhibition dot blot (protein)
chain: GVFNYETETTSVIPAARLFKAFILDGDNLFPKVAPQAISSVENIEGNGGPGTIKKISFPEGFPFKYVKDRVDEVDHTNFKYNYSVIEGGPIGDTLEKISNEIKIVATPDGGSILKISNKYHTKGDHEVKAEQVKASKEMGETLLRAVESYLLAHSDAYN
B3: α-purothionin: clone 84-derived wheat allergen expressed as recombinant protein with C-terminal hexahistidine tag in E. coli (protein, listed as Triticum aestivum)
chain: LSSGLSCPKGFPKLALESNSDEPDTIEYCNLGCRSSVCDYMVNAAADDEEMKLYVENCADACVSFCNGDAGLPSLDAY
modifications: C-terminal His6 tag
notes: clone 84-derived wheat allergen expressed as recombinant protein with C-terminal hexahistidine tag in E. coli
B4: mal43: recombinant MBP fusion with part of the repetitive domain of HMW glutenin Glu-B1 and hexa-histidine tag (protein)
chain: RNSGQQLGQGQPGYYPTSQQSEQRQQPGQGKQPGQGQQGYYPTSPQQSGQGQQLGQGQPGYYPTSPQQSGQGQQSGQGQQGYYPTSPQQSGQGQQPGQGQSGYFPTSRQQSGQGQQPGQGQQSGQGQQGQQPGQGQQAYYPTSSQQSRQRQQAGQWQRPGQGQPGYYPTSPQQPGQEQQSGQAQQSGQWQLVYYPTSPQQPGQLQQPAQGQQPAQGQQSAQEQQPGQAQQSGQWQLVYYPTSPQQPGQLQQPAQGQQGYYPTSPQQSGQGQQGYYPTSSRHHHHHH
modifications: left off: large carriers
B5: C175: recombinant protein of clone 175: the three C-terminal regions of GluB3-23 and the hexa-histidine tag (protein)
chain: RQQLGQGQQGYYPTSLQPGQKQQAGQGQQSGQGQQGYYPTSPQQSGQGQQPGQGQPGYYPTSPQQSGQWQQPGQGQQPGQGQQSGQWQLVYYPTSPQQQIVLQQRPPFLQQQQPSLPQQPPFSQQQQQLVLPQQQIPFVHPSILQQLNPCKVFLQQQCSPVAMPQSLARSQMLQQSSCHVMQQQCCQQLPQIPQQSRYEAIRAIIYSIILQEQQQVQGSIQTPQQQPQQLGQCVSQPQQQSQQQLGQQPQQQQLAQGTFLQPHQIAQLEVMTSIALRTLPTMCRVNVPLYRTTTSVPFGVGTGVGSYHHHHHH
B6: mal82: recombinant MBP fusion with part of repetitive region and C-terminal non repetitive region of Glu-B1, hexa-histidine tag (protein)
chain: PTSPQQSGQGQQGYYPTSPQQSGQGQQGYYPTSPQQSGQGQQPGQGQQPRQGQQGYYPISPQQSGQGQQPGQGQQRYYPTSPQQSGQGQQPGHEQQPGQWLQPGQGQQGYYPTSSQQSGQGHQSGQGQQGYYPTSLWQPGQGQQPGQGQQGYASPYHVSAEYQAARLKVAKAQQLAAQLPAMCRLEGSDALSTRQHHHHHH
modifications: left off: large carriers
B7: GluB3-23: recombinant full length s-LMW glutenin GluB3-23 of wheat without signal peptide, plus hexa-histidine tag (protein)
chain: MKTFLIFALLAIVATSAIAQMENSHIPGLERPSQQQPLPPQQTLSHHQQQQPIQQQPQPFSQQQPCSQQQQQPLSQQQQPPFSQQQPPFSQQQQQPLSQQQQPPFSQQQPPFSQQQQPPFSQQQPPFSQQQQPVLPQQPSFSQQQLPPFSQQQSPFSQQQQIVLQQQPPFLQQQQPSLPQQPPFSQQQQQLVLPQQQIPFVHPSILQQLNPCKVFLQQQCSPVAMPQSLARSQMLQQSSCHVMQQQCCQQLPQIPQQSRYEAIRAIIYSIILQEQQQVQGSIQTPQQQPQQLGQCVSQPQQQSQQQLGQQPQQQQLAQGTFLQPHQIAQLEVMTSIALRTLPTMCRVNVPLYRTTTSVPFGVGTGVGSYHHHHHH
B8: GG1: recombinant gamma gliadin 1 with 6×Histidine at the C terminal end, expressed in E. coli (protein)
chain: MNIQVDPSGQVQWLQQQLVPQLQQPLSQQPQQTFPQPQQTFPHQPQQQVPQPQQPQQPFLQPQQPFPQQPQQPFPQTQQPQQPFPQQPQQPFPQTQQPQQPFPQQPQQPFPQTQQPQQPFPQLQQPQQPFPQPQQQLPQPQQPQQSFPQQQRPFIQPSLQQQLNPCKNILLQQSKPASLVSSLWSIIWPQSDCQVMRQQCCQQLAQIPQQLQCAAIHSVVHSIIMQQQQQQQQQQGIDIFLPLSQHEQVGQGSLVQGQGIIQPQQPAQLEAIRSLVLQTLPSMCNVYVPPECSIMRAPFASIVAGIGGQHHHHHH

Columns and labels:
[1] = tested on: serum IgA of celiac disease patients; experiment: IgA reactivity ELISA to wheat food antigens; assay type: binding, human; settings: 5 μg/ml coated, sera 1:100, read at 405 nm, FIG. 15
Protocol: 100 μl of the wheat proteins GG1 (Gamma gliadin 1), GG2 (Gamma gliadin 2), α-purothionin, GluB3-23, C-175, Mal 82 and Mal 43 of a concentration of 5 μg/ml were coated overnight at 4° C. onto Nunc Maxisorp Elisa plates. The remaining free binding sites were blocked with 1% BSA in PBST for 2 hours at room temperature. 100 μl of sera from celiac disease patients, celiac patients on diet and negative controls were added at a dilution of 1:100 in 0.5% BSA in PBST buffer and incubated for 12 hours at 4° C. The plates were washed 5 times in PBST buffer and 100 μl of mouse anti-human IgA1/A2 (BD Biosciences) diluted to 1:1000 in 0.5% BSA/PBST buffer was added and incubated at room temperature for 5 hours. The plates were then washed 5 times with PBST and 100 μl of sheep anti-mouse IgG conjugated with Horse radish peroxidise (HRP) (Amersham) antibodies were added and incubated at 37° C. for one hour.

[2] = tested on: serum IgA from Dermatitis herpetiformis (DH) patients; experiment: Dermatitis herpetiformis serum IgA reactivity ELISA; assay type: binding, human; settings: 5 μg/ml coated; n=12 DH patients, 2 healthy controls; FIG. 18
Protocol: ELISA plates were coated with 100 μl of 5 μg/ml rGamma gliadin 1, rGamma gliadin 2, α-gliadin peptide p56-75 (α-gli peptide), deamidated α-gliadin peptide (D) and Human serum albumin. The bound proteins were probed with sera from Dermatitis herpetiformis (DH) patients and healthy controls. IgA reactivity to the proteins was detected using mouse anti-human IgA1/A2 and sheep anti-mouse IgG-HRP labelled antibody. (n=12 DH patients and 2 healthy controls).

[3] = tested on: IgE binding to GluB3-23; experiment: IgE inhibition dot blot (sera pre-incubated with recombinant protein); set-up: species or system human
Protocol: An inhibition dot blot was performed with patients' sera. […] Bound IgE Abs were detected with ^125I-labelled anti human IgE Abs and visualized by autoradiography, the dot intensity was measured by a gamma counter.

[4] = tested on: serum IgE antibodies from patients suffering from wheat food allergy; experiment: IgE reactivity dot blot with sera from wheat food allergic patients; assay type: binding, human; settings: for patients reacting to the recombinant protein (IgE): FIG. 12; for patients showing IgE reactivity: 0.5 μg dotted protein, sera 1:10
Protocol: GluB3-23 is a major allergen in wheat dependent food allergy IgE reactivity of wheat food allergic patients to GluB3-23 and C175 was tested by dot blot analysis shown in FIG. 10 and FIG. 11. 0.5 μg of purified recombinant proteins (GluB3-23 and C175), 2 μg aqueous wheat seed (WSE) extract and 0.5 μg of human serum albumin (HSA) were dotted onto nitrocellulose (Whatman Protran nitrocellulose membrane, Sigma Aldrich) strips and after blocking with buffer A (50 mM sodium phosphate buffer, pH7.4, 0.5% w/v BSA, 0.5% v/v Tween-20, 0.05% w/v NaN3) incubated with 1:10 diluted sera from patients suffering from wheat food allergy. Bound IgE Abs were detected with 1:10 diluted ^125I labeled anti human IgE Abs and visualized by autoradiography.
Sera were obtained from populations of patients suffering from wheat food allergy. Patients were selected according to positive case history, positive Skin Prick Test (SPT), double blind or open food challenge or CAP-test (Phadia, Uppsala, Sweden) to wheat.
The recombinant high molecular weight proteins mal43 and mal82, representing partial proteins of Glu-B1, were tested in dot blots with sera from patients from a population shown in FIG. 11. Sera were obtained from patients suffering from wheat food allergy. Patients were selected according to positive case history and positive Skin Prick Test (SPT) or CAP-test (Phadia, Uppsala, Sweden) to wheat. 0.5 μg of purified recombinant proteins (mal43 and mal82), 2 μg aqueous wheat seed (WSE) extract and 0.5 μg of human serum albumin (HSA) were dotted onto nitrocellulose (Whatman Protran nitrocellulose membrane, Sigma Aldrich) strips and after blocking with buffer A incubated with 1:10 diluted patients sera. Bound IgE Abs were detected with 1:10 diluted ^125I labeled anti human IgE Abs and visualized by autoradiography. […] On the basis of WHO/IRIS Allergen Standardization Committee definition (www.allergen.org), an allergen recognized by 10% of the patients is a minor allergen.
The IgE reactivity of dot-blotted recombinant wheat α-purothionin was tested with serum IgE antibodies from patients suffering from wheat food allergy (Table 3). […] 23% of patients from one population (n=13) and 29% of the patients from another population (n=24) reacted to the recombinant α-purothionin. (FIG. 12).

[5] = serum Pat 3, pre-incubated with 10 μg protein
[6] = serum Pat 10, pre-incubated with 10 μg protein
[7] = serum Pat 11, pre-incubated with 10 μg protein
[8] = serum Pat 12, pre-incubated with 10 μg protein
[9] = another wheat food allergy patient population, FIG. 11
[10] = serum Pat 8, pre-incubated with 10 μg protein
[11] = wheat food allergy patient population of FIG. 10

Molecule | IgA reactivity [1] | bound IgE, dot intensity by gamma counter [3, 5] | bound IgE, dot intensity by gamma counter [3, 6] | bound IgE, dot intensity by gamma counter [3, 7] | bound IgE, dot intensity by gamma counter [3, 8] | patients showing IgE reactivity [4, 9] | other results
B1 | high |  |  |  |  |  | IgA reactivity, DH patients versus healthy controls [2]: higher IgA reactivity to sera from DH patients than to healthy controls
B2 |  | 829.0 cpm | 377.6 cpm | 379.0 cpm | 11.5 cpm |  | 
B3 | negative |  |  |  |  |  | patients reacting to the recombinant protein (IgE) ([4]; another population (n=24)): 29%; patients reacting to the recombinant protein (IgE) ([4]; one population (n=13)): 23%
B4 | moderate |  |  |  |  | 30.8% | 
B5 | moderate | 650.0 cpm | 379.1 cpm | 190.0 cpm | 16.2 cpm | 73.1% | % inhibition of IgE binding [3, 5]: 22.6%; % inhibition of IgE binding [3, 10]: 3.0%; bound IgE, dot intensity by gamma counter [3, 10]: 73.9 cpm; % inhibition of IgE binding [3, 6]: 0.0%; % inhibition of IgE binding [3, 7]: 55.3%; potential to inhibit IgE binding to GluB3-23 ([3]; summary of Table 2): low potential to inhibit IgE binding; patients showing IgE reactivity [4, 11]: 27.3%
B6 | moderate |  |  |  |  | 30.8% | 
B7 | moderate | 326.0 cpm | 36.0 cpm | 58.9 cpm | 17.7 cpm | 80.8% | % inhibition of IgE binding [3, 5]: 63.3%; % inhibition of IgE binding [3, 10]: 100.0%; bound IgE, dot intensity by gamma counter [3, 10]: 31.5 cpm; % inhibition of IgE binding [3, 6]: 100.0%; % inhibition of IgE binding [3, 7]: 93.8%; patients showing IgE reactivity [4, 11]: 54.5%
B8 | high |  |  |  |  |  | IgA reactivity, DH patients versus healthy controls [2]: higher IgA reactivity to sera from DH patients than to healthy controls
